Reference: patent publication US10000749B2, “Valencene synthase polypeptides, encoding nucleic acid molecules and uses thereof” (Evolva, Inc., priority 2013, dated 2018)
Entries after “also recorded” stand apart in the source; their conditions may differ.

Legend:
[1] = system: ticks and mosquitoes; conditions: against ticks and mosquitoes; cited from earlier work
[2] = system: Saccharomyces cerevisiae strain ALX11-30; experiment: Shake flask assay of cells expressing valencene synthase; format: cell-based; conditions: FIG. 7, cells expressing the synthase
Experimental: Seed cultures were started in 250 mL flasks by inoculating 15 mL of SD or SDE medium (for ALX11-30 and ALX7-95 strains, respectively) with freshly growing colonies of the 7 strains shown in Table 5 above. The cultures were grown for 24 hours, and 2.5 mL of each culture were used to inoculate 50 mL of fermentation medium (2% ammonium sulfate, 2% potassium phosphate, 0.1% NaCl, 0.6% MgSO4.7H2O, 0.4% yeast extract, 1 mL mineral solution [FeSO4.7H2O 0.028%, ZnSO4.7H2O 0.029%, CuSO4.5H2O 0.008%, Na2MoO4.2H2O 0.024%, CoCl2.6H2O 0.024%, MnSO4.H2O 0.017%, HCl 1 mL], 0.5 mL 50% glucose, 1.5 mL vitamin solution [biotin 0.001%, Ca-pantothenate 0.012%, inositol 0.06%, pyridoxine-HCl 0.012%, thiamine-HCl 0.012%], and 0.5 mL 10% CaCl2) in a 250 mL baffled flask. The cultures were grown at 28° C. After 16 hours of incubation, the cultures were fed 3.6 mL of 50% glucose and 0.667 mL of 12.5% yeast extract. […] An aliquot of the organic phase was analyzed by gas chromatography and the amount of valencene produced was quantified by calculating the area under the peak representing valencene. […]
Table 6a below provides product distribution profiles including the amount of valencene produced from the shake flask assay, as determined by gas chromatography, of CVS 277 compared to two strains that produce EGVS in the ALX11-30 strain (as described in Example 3).

[3] = Steady state kinetic analysis of His-tag purified valencene synthases; format: biochemical
Experimental: In this example, the activity of E. glaciale valencene synthase (EgVS; SEQ ID NO:1) and of the citrus valencene synthase designated V277 (SEQ ID NO:31) were evaluated by steady state kinetic analysis. To compare the activities of these enzymes in vitro, the valencene synthases were Histidine-tagged at the C-terminus, expressed in E. coli, purified by nickel chelate chromatography, and evaluated for activity by steady state kinetic analysis. […] T=30C. Detection: GC/MS-SIM.

C=C(C)[C@@H]1CCC2=CC(=O)C[C@@H](C)[C@]2(C)C1 [nootkatone, 4,4a,5,6,7,8-hexahydro-6-isopropenyl-4,4-a-dimethyl-2(3H)-naphthalenone]
Repellent and insecticide effect [1]: effective repellent and insecticide

B1: EgVS: Eryngium glaciale valencene synthase, amino acid sequence SEQ ID NO:1; His-tagged at the C-terminus for kinetics (protein)
chain: MSLNVLSTSGSAPTTKSSEITRRSANYHPSLWGDKFLEYSSPDHLKNDSFTEKKHEQLKEEVKKMLVETVQKPQQQLNLINEIQRLGLSYLFEPEIEAALQEISVTYDEFCCSTDADDLHNVALSFRILREHGHNVSSDVFQKFMDSNGKLKDYLVNDARGLLSLYEATHFRVHNDDKLEELLSVTTSRLEHLKSHVKYPLEDEISRALKHPLHKELNRLGARYYISIYEKFDSHNKLLLEFAKLDFNRLQKMYQHELAHLTRWWKDLDFTNKLPFARDRIVEGYFWILGMYFEPERKDVREFLNRVFALITVVDDTYDVYGTFKELLLFTDAIERWGTSDLDQLPGYMRIIYQALMDVYNQMEEKLSMKADCPTYRLEFAIETVKAMFRSYLEEARWSKEHYIPSMEEYMTVALVSVGYKTILTNSFVGMGDIATREVFEWVFNSPLIIRASDLIARLGDDIGGHEEEQKKGDAATAIECYIKENHVTKHEAYDEFQKQIDNAWKDLNKEALRPFPVPMTFITRVVHFTRAIHVIYADFSDGYTRSDKAIRGYITSLLVDPIPL
modifications: C-terminal His tag; Eryngium glaciale; valencene synthase protein
notes: His-tagged at the C-terminus for kinetics
Valencene production in yeast compared to the CVS synthase ([2]; listed as EG synthase): more than twice the amount of valencene | Valencene production in yeast compared to the CVS synthase ([2]; listed as EVS): significantly greater | Turnover compared with valencene synthase V277 [3]: turned over significantly more times | Total and specific activity compared with valencene synthase V277 ([3]; side-by-side comparison, FIG. 6): dramatically higher total and specific activity; also recorded: exhibits greater activity
